This is an account of results in the supplement of paper PMC5998384.

Data set [1] has as its system HeLa Kyoto. The data set can be described thus: solubility in G1/S (NP-40 vs SDS abundance) (log2 ratio); higher = more soluble. Conditions: cell cycle stage: G1/S.
For data set [2], the system named is HeLa Kyoto. The data set can be described thus: melting temperature (median over replicates), in situ; higher = more thermally stable.
Data set [3] has as its system HeLa Kyoto. The data set can be described thus: solubility change mitosis vs G1/S (difference of NP-40 vs SDS log2 ratios) (log2 ratio difference); higher = more soluble in mitosis.
Data set [4] concerns HeLa Kyoto. The data set can be described thus: thermal stability score vs G1/S (z-score of summed log2 fold changes over temperatures); higher = more thermally stable than in G1/S.
The mark [5] stands for this setting: cell cycle stage: early G1 (4.5 h after nocodazole release).
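Throughout, for melting temperature (median over replicates), in situ: HeLa Kyoto cells synchronized by double thymidine or nocodazole block, proteins quantified by TMT10plex mass spectrometry, three independent biological replicates.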
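Throughout, for solubility change mitosis vs G1/S (difference of NP-40 vs SDS log2 ratios): synchronized HeLa Kyoto cells (double thymidine block for G1/S, nocodazole release for mitosis), protein amounts in NP-40 versus SDS lysates quantified by mass spectrometry, three biological replicates.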
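Throughout, for solubility in G1/S (NP-40 vs SDS abundance): HeLa Kyoto cells arrested at G1/S by double thymidine block, proteins quantified by TMT10plex mass spectrometry in mild NP-40 versus SDS extracts, three biological replicates.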
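Throughout, for thermal stability score vs G1/S (z-score of summed log2 fold changes over temperatures): synchronized HeLa Kyoto cells, proteins quantified by TMT10plex mass spectrometry, three biological replicates, mitosis taken 0.5 h after nocodazole release, G1/S directly after double thymidine block.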

Regarding “MDRSSKRRQVKPLAASLLEALDYDSSDDSDFKVGDASDSEGSGNGSEDASKDSGEGSCSDSEENILEEELNEDIKVKEEQLKNSAEEEVLSSEKQLIKMEKKEEEENGERPRKKKEKEKEKEKEKEKEKEREKEKEKATVSENVAASAAATTPATSPPAVNTSPSVPTTTTATEEQVSEPKKWNLRRNRPLLDFVSMEELNDMDDYDSEDDNDWRPTVVKRKGRSASQKEGSDGDNEDDEDEGSGSDEDENDEGNDEDHSSPASEGGCKKKKSKVLSRNSADDEELTNDSLTLSQSKSNEDSLILEKSQNWSSQKMDHILICCVCLGDNSEDADEIIQCDNCGITVHEGCYGVDGESDSIMSSASENSTEPWFCDACKCGVSPSCELCPNQDGIFKETDAGRWVHIVCALYVPGVAFGDIDKLRPVTLTEMNYSKYGAKECSFCEDPRFARTGVCISCDAGMCRAYFHVTCAQKEGLLSEAAAEEDIADPFFAYCKQHADRLDRKWKRKNYLALQSYCKMSLQEREKQLSPEAQARINARLQQYRAKAELARSTRPQAWVPREKLPRPLTSSASAIRKLMRKAELMGISTDIFPVDNSDTSSSVDGRRKHKQPALTADFVNYYFERNMRMIQIQENMAEQKNIKDKLENEQEKLHVEYNKLCESLEELQNLNGKLRSEGQGIWALLGRITGQKLNIPAILRAPKERKPSKKEGGTQKTSTLPAVLYSCGICKKNHDQHLLLLCDTCKLHYHLGCLDPPLTRMPRKTKNSYWQCSECDQAGSSDMEADMAMETLPDGTKRSRRQIKEPVKFVPQDVPPEPKKIPIRNTRTRGRKRSFVPEEEKHEERVPRERRQRQSVLQKKPKAEDLRTECATCKGTGDNENLVRCDECRLCYHFGCLDPPLKKSPKQTGYGWICQECDSSSSKEDENEAERKNISQELNMEQKNPKK [PHF14]”, the “solubility in G1/S (log2)” value in data set [1] is -1.13. The sequence also gave a melting temperature in data set [2] (cell cycle stage: mitosis) of 50.1 °C. In data set [3], the “solubility change mitosis (log2)” value worked out at 0.708. The thermal stability score was -0.0393 in data set [4] (setting [5]) and 2.42 in data set [4] (cell cycle stage: mitosis).

As for “MSPVLHFYVRPSGHEGAAPGHTRRKLQGKLPELQGVETELCYNVNWTAEALPSAEETKKLMWLFGCPLLLDDVARESWLLPGSNDLLLEVGPRLNFSTPTSTNIVSVCRATGLGPVDRVETTRRYRLSFAHPPSAEVEAIALATLHDRMTEQHFPHPIQSFSPESMPEPLNGPINILGEGRLALEKANQELGLALDSWDLDFYTKRFQELQRNPSTVEAFDLAQSNSEHSRHWFFKGQLHVDGQKLVHSLFESIMSTQESSNPNNVLKFCDNSSAIQGKEVRFLRPEDPTRPSRFQQQQGLRHVVFTAETHNFPTGVCPFSGATTGTGGRIRDVQCTGRGAHVVAGTAGYCFGNLHIPGYNLPWEDPSFQYPGNFARPLEVAIEASNGASDYGNKFGEPVLAGFARSLGLQLPDGQRREWIKPIMFSGGIGSMEADHISKEAPEPGMEVVKVGGPVYRIGVGGGAASSVQVQGDNTSDLDFGAVQRGDPEMEQKMNRVIRACVEAPKGNPICSLHDQGAGGNGNVLKELSDPAGAIIYTSRFQLGDPTLNALEIWGAEYQESNALLLRSPNRDFLTHVSARERCPACFVGTITGDRRIVLVDDRECPVRRNGQGDAPPTPLPTPVDLELEWVLGKMPRKEFFLQRKPPMLQPLALPPGLSVHQALERVLRLPAVASKRYLTNKVDRSVGGLVAQQQCVGPLQTPLADVAVVALSHEELIGAATALGEQPVKSLLDPKVAARLAVAEALTNLVFALVTDLRDVKCSGNWMWAAKLPGEGAALADACEAMVAVMAALGVAVDGGKDSLSMAARVGTETVRAPGSLVISAYAVCPDITATVTPDLKHPEGRGHLLYVALSPGQHRLGGTALAQCFSQLGEHPPDLDLPENLVRAFSITQGLLKDRLLCSGHDVSDGGLVTCLLEMAFAGNCGLQVDVPVPRVDVLSVLFAEEPGLVLEVQEPDLAQVLKRYRDAGLHCLELGHTGEAGPHAMVRVSVNGAVVLEEPVGELRALWEETSFQLDRLQAEPRCVAEEERGLRERMGPSYCLPPTFPKASVPREPGGPSPRVAILREEGSNGDREMADAFHLAGFEVWDVTMQDLCSGAIGLDTFRGVAFVGGFSYADVLGSAKGWAAAVTFHPRAGAELRRFRKRPDTFSLGVCNGCQLLALLGWVGGDPNEDAAEMGPDSQPARPGLLLRHNLSGRYESRWASVRVGPGPALMLRGMEGAVLPVWSAHGEGYVAFSSPELQAQIEARGLAPLHWADDDGNPTEQYPLNPNGSPGGVAGICSCDGRHLAVMPHPERAVRPWQWAWRPPPFDTLTTSPWLQLFINARNWTLEGSC [PFAS]”, the “solubility in G1/S (log2)” value in data set [1] came out at 0.146. In addition, the melting temperature in data set [2] (cell cycle stage: G1/S) amounted to 51.9 °C; in data set [2] (cell cycle stage: mitosis), 51.5 °C. Moreover, in data set [3], the “solubility change mitosis (log2)” value is -0.0731. The results for the thermal stability score in data set [4] (setting [5]) and in data set [4] (cell cycle stage: mitosis) were -3.18 and -3.7, respectively.

On to “MQGSSLWLSLTFRSARVLSRARFFEWQSPGLPNTAAMENGTGPYGEERPREVQETTVTEGAAKIAFPSANEVFYNPVQEFNRDLTCAVITEFARIQLGAKGIQIKVPGEKDTQKVVVDLSEQEEEKVELKESENLASGDQPRTAAVGEICEEGLHVLEGLAASGLRSIRFALEVPGLRSVVANDASTRAVDLIRRNVQLNDVAHLVQPSQADARMLMYQHQRVSERFDVIDLDPYGSPATFLDAAVQAVSEGGLLCVTCTDMAVLAGNSGETCYSKYGAMALKSRACHEMALRIVLHSLDLRANCYQRFVVPLLSISADFYVRVFVRVFTGQAKVKASASKQALVFQCVGCGAFHLQRLGKASGVPSGRAKFSAACGPPVTPECEHCGQRHQLGGPMWAEPIHDLDFVGRVLEAVSANPGRFHTSERIRGVLSVITEELPDVPLYYTLDQLSSTIHCNTPSLLQLRSALLHADFRVSLSHACKNAVKTDAPASALWDIMRCWEKECPVKRERLSETSPAFRILSVEPRLQANFTIREDANPSSRQRGLKRFQANPEANWGPRPRARPGGKAADEAMEERRRLLQNKRKEPPEDVAQRAARLKTFPCKRFKEGTCQRGDQCCYSHSPPTPRVSADAAPDCPETSNQTPPGPGAAAGPGID [TRMT1]”, for which the “solubility in G1/S (log2)” value in data set [1] was -0.0405. Also, the melting temperature in data set [2] (cell cycle stage: G1/S) came to 56.3 °C; in data set [2] (cell cycle stage: mitosis), 56.7 °C. In addition, in data set [3], the “solubility change mitosis (log2)” value was -0.0538. In addition, the results for the thermal stability score in data set [4] (setting [5]) and in data set [4] (cell cycle stage: mitosis) were -0.711 and -1.01, respectively.

Consider “MAMLVLVPGRVMRPLGGQLWRFLPRGLEFWGPAEGTARVLLRQFCARQAEAWRASGRPGYCLGTRPLSTARPPPPWSQKGPGDSTRPSKPGPVSWKSLAITFAIGGALLAGMKHVKKEKAEKLEKERQRHIGKPLLGGPFSLTTHTGERKTDKDYLGQWLLIYFGFTHCPDVCPEELEKMIQVVDEIDSITTLPDLTPLFISIDPERDTKEAIANYVKEFSPKLVGLTGTREEVDQVARAYRVYYSPGPKDEDEDYIVDHTIIMYLIGPDGEFLDYFGQNKRKGEIAASIATHMRPYRKKS [SCO1]”, for which, in data set [1], the “solubility in G1/S (log2)” value was found to be 0.47. For the same sequence, the melting temperature in data set [2] (cell cycle stage: G1/S) worked out at 49.8 °C; in data set [2] (cell cycle stage: mitosis) it was 51.2 °C. Moreover, in data set [3], the “solubility change mitosis (log2)” value was -0.107. Further, the thermal stability score amounted to 2.42 in data set [4] (setting [5]) and 1.59 in data set [4] (cell cycle stage: mitosis).

Consider “MATHGQTCARPMCIPPSYADLGKAARDIFNKGFGFGLVKLDVKTKSCSGVEFSTSGSSNTDTGKVTGTLETKYKWCEYGLTFTEKWNTDNTLGTEIAIEDQICQGLKLTFDTTFSPNTGKKSGKIKSSYKRECINLGCDVDFDFAGPAIHGSAVFGYEGWLAGYQMTFDSAKSKLTRNNFAVGYRTGDFQLHTNVNDGTEFGGSIYQKVCEDLDTSVNLAWTSGTNCTRFGIAAKYQLDPTASISAKVNNSSLIGVGYTQTLRPGVKLTLSALVDGKSINAGGHKVGLALELEA [VDAC2]”, for which the “solubility in G1/S (log2)” value in data set [1] is -0.125. Also, the melting temperature in data set [2] (cell cycle stage: G1/S) turned out to be 59.9 °C; in data set [2] (cell cycle stage: mitosis), 60.3 °C. For the same sequence, the “solubility change mitosis (log2)” value in data set [3] is -0.0952. Moreover, the figures for the thermal stability score in data set [4] (setting [5]) and in data set [4] (cell cycle stage: mitosis) were -1.16 and -4.22, respectively.
